Here are results for eleven molecules from patent publication US20260201058A1 (SICHUAN HUIYU PHARMACEUTICAL, published 2026).

In assay [1] the target is T1, monkey PD-L1 protein (Kactus Biosystems, PDL-CM210) (monkey).
T1 construct: Bought protein; also called Monkey PDL1-Fc
Kind of assay: Carterra HC30M chip, antibody captured via anti-DYKDDDDK, PD-L1 as analyte. The method, then:
(§1) The anti-[…] antibody was bound to the HC30M chip via amino coupling, then 2 μg/mL of humanized PD-L1 single-domain antibody was captured. […] Kinetic constants were obtained by fitting with Carteria software.

Assay [2] addresses T2, mouse PD-L1 protein (ACRO, PD1-M5251) (mouse, UniProt Q9EP73 19-238).
T2 construct: Bought protein; also called Mouse PDL1-Fc
Described as above. How it is done: as §1

Assay [3] deals with T3, hFc-tagged human MSLN recombinant protein (huMSLN-hFc, Kactus Biosystems, MSL-HM280) (human, UniProt Q13421 296-580).
T3 construct: Bought protein; also called huMSLN-Fc; human MSLN-Fc
T3 sequence (Q13421 other isoform, or with tags, fused parts or gaps): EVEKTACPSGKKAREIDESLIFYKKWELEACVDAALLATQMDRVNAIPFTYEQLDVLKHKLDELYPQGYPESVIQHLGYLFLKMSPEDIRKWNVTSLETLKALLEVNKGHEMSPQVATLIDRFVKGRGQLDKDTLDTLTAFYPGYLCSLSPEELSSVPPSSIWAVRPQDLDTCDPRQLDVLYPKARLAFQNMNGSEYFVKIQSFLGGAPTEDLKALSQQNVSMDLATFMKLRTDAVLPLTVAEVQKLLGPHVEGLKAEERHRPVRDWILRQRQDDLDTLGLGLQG
As to the kind of experiment: Carterra HC30M chip, antibody captured via anti-DYKDDDDK, antigen as analyte. The method, then: (§2) The anti-[…] antibody was bound to the HC30M chip via amino coupling, and then 2 μg/mL of MSLN single-domain antibody was captured. After the baseline was stabilized, gradient diluted huMSLN-Fc (Kactus Biosystems, MSL-HM280) and cynoMSLN-Fc (Kactus Biosystems, MSL-CM280) (starting from 100 nM, gradient dilution) were flowed through the chip from low to high concentrations, respectively, with a binding time of 8 minutes and a dissociation time of 20 minutes. Kinetic constants were obtained by fitting with Carteria software.

Assay [4] concerns the target T4, cynoMSLN-Fc (Kactus Biosystems, MSL-CM280) (cyno (monkey)).
T4 construct: Bought protein; also called monkey MSLN
The description is as above. The method, then:
as §2

T2 sequence (Q9EP73 19-238): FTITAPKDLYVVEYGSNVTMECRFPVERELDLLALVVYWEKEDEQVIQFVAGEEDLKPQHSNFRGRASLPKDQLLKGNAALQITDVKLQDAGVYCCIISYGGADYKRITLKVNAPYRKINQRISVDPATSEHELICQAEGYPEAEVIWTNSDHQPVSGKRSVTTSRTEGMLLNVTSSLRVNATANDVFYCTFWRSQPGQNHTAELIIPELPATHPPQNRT

B1: 4A7 hu-1 (Fc fusion)
chain: EVQLLESGGGLVQPGGSLRLSCAASGRTFSTNVMSWVRQAPGKGLEWVSAISRAGSTYYADSVKGRFTISRDNSKNTLYLQMNSLRAEDTAVYYCAAGSSPTAIFGKSGMDYWGQGTQVTVSSGGGGSGGGGSDKTHTCPPCPAPEAAGAPSVFLFPPKPKDTLMISRTPEVTCVVVDVSHEDPEVKFNWYVDGVEVHNAKTKPREEQYNSTYRVVSVLTVLHQDWLNGKEYKCAVSNKALPAPIEKTISKAKGQPREPQVYTLPPSRDELTKNQVSLTCLVKGFYPSDIAVEWESNGQPENNYKTTPPVLDSDGSFFLYSKLTVDKSRWQQGNVFSCSVMHEALHNHYTQKSLSLSP
notes: Humanized VHH-Fc antibody
Regarding B1, the Kd (usually the free concentration of one partner at which half of the binding sites on the other are occupied at equilibrium, for simple one-to-one binding) in assay [1] is 1320 nM; in assay [2] it was 143 nM.

B2: 4A7 hu-2 (Fc fusion)
chain: EVQLLESGGGLVQPGGSLRLSCAASGRTFSTNVMGWVRQAPGKGLEWVSAISRAGSTYSADSVKGRFTISRDNSKNTLYLQMNSLRAEDTAVYYCAAGSSPTAIFGKSGMDYWGQGTQVTVSSGGGGSGGGGSDKTHTCPPCPAPEAAGAPSVFLFPPKPKDTLMISRTPEVTCVVVDVSHEDPEVKFNWYVDGVEVHNAKTKPREEQYNSTYRVVSVLTVLHQDWLNGKEYKCAVSNKALPAPIEKTISKAKGQPREPQVYTLPPSRDELTKNQVSLTCLVKGFYPSDIAVEWESNGQPENNYKTTPPVLDSDGSFFLYSKLTVDKSRWQQGNVFSCSVMHEALHNHYTQKSLSLSP
notes: Humanized VHH-Fc antibody
On to B2, for which the dissociation constant (Kd) in assay [1] is 367 nM; in assay [2], 408 nM.

B3: 3C6 hu-5 (Fc fusion)
chain: EVQLVESGGGLIQPGGSLRLSCAASGNIGSIRHMGWHRQAPGKERELVSTITTVGTTYYANFVKGRFTISRDNSKNTLYLQMNSLRAEDTAVYYCRATAHPTDYWGQGTLVTVSSGGGGSGGGGSDKTHTCPPCPAPEAAGAPSVFLFPPKPKDTLMISRTPEVTCVVVDVSHEDPEVKFNWYVDGVEVHNAKTKPREEQYNSTYRVVSVLTVLHQDWLNGKEYKCAVSNKALPAPIEKTISKAKGQPREPQVYTLPPSRDELTKNQVSLTCLVKGFYPSDIAVEWESNGQPENNYKTTPPVLDSDGSFFLYSKLTVDKSRWQQGNVFSCSVMHEALHNHYTQKSLSLSP
notes: Humanized VHH-Fc antibody: VHH, linker, human IgG1 Fc
Consider B3, for which, in assay [3], the Kd is 2.26 nM; the off-rate (koff) (usually the rate constant with which the complex falls apart) came out at 0.00175 s⁻¹; the kon (in general, the second-order rate constant of association) stood at 772000 M⁻¹ s⁻¹. Further, in assay [4], the Kd is 1.66 nM, the koff came out at 0.000914 s⁻¹ and the on-rate constant (kon) was found to be 551000 M⁻¹ s⁻¹.

B4: 3C6 hu-1 (Fc fusion)
chain: EVQLVESGGGLIQPGGSLRLSCAASGNIGSIRHMGWVRQAPGKGLEWVSTITTVGTTYYANFVKGRFTISRDNSKNTLYLQMNSLRAEDTAVYYCRATAHPTDYWGQGTLVTVSSGGGGSGGGGSDKTHTCPPCPAPEAAGAPSVFLFPPKPKDTLMISRTPEVTCVVVDVSHEDPEVKFNWYVDGVEVHNAKTKPREEQYNSTYRVVSVLTVLHQDWLNGKEYKCAVSNKALPAPIEKTISKAKGQPREPQVYTLPPSRDELTKNQVSLTCLVKGFYPSDIAVEWESNGQPENNYKTTPPVLDSDGSFFLYSKLTVDKSRWQQGNVFSCSVMHEALHNHYTQKSLSLSP
notes: as for B3
B4: in assay [3], the dissociation constant (Kd) is 2.69 nM, the koff was 0.00187 s⁻¹ and the kon was 695000 M⁻¹ s⁻¹. In assay [4], this molecule displayed a Kd of 3.67 nM, a dissociation rate constant (koff) of 0.00151 s⁻¹ and a kon of 412000 M⁻¹ s⁻¹.

B5: 3C6 hu-6 (Fc fusion)
chain: EVQLVESGGGLIQPGGSLRLSCAASGNIGSIRHMGWHRQAPGKERELVATITTVGTTYYANFVKGRFTISRDNSKNTLYLQMNSLRAEDTAVYYCRATAHPTDYWGQGTLVTVSSGGGGSGGGGSDKTHTCPPCPAPEAAGAPSVFLFPPKPKDTLMISRTPEVTCVVVDVSHEDPEVKFNWYVDGVEVHNAKTKPREEQYNSTYRVVSVLTVLHQDWLNGKEYKCAVSNKALPAPIEKTISKAKGQPREPQVYTLPPSRDELTKNQVSLTCLVKGFYPSDIAVEWESNGQPENNYKTTPPVLDSDGSFFLYSKLTVDKSRWQQGNVFSCSVMHEALHNHYTQKSLSLSP
notes: as for B3
Turning to B5, in assay [3], the dissociation constant Kd worked out at 2.25 nM, the koff turned out to be 0.00185 s⁻¹ and the kon turned out to be 820000 M⁻¹ s⁻¹. Moreover, in assay [4], the Kd stood at 1.78 nM, the koff is 0.00115 s⁻¹ and the kon stood at 644000 M⁻¹ s⁻¹.

B6: 3C6 hu-2 (Fc fusion)
chain: EVQLVESGGGLIQPGGSLRLSCAASGNIGSIRHMGWHRQAPGKGLELVSTITTVGTTYYANFVKGRFTISRDNSKNTLYLQMNSLRAEDTAVYYCRATAHPTDYWGQGTLVTVSSGGGGSGGGGSDKTHTCPPCPAPEAAGAPSVFLFPPKPKDTLMISRTPEVTCVVVDVSHEDPEVKFNWYVDGVEVHNAKTKPREEQYNSTYRVVSVLTVLHQDWLNGKEYKCAVSNKALPAPIEKTISKAKGQPREPQVYTLPPSRDELTKNQVSLTCLVKGFYPSDIAVEWESNGQPENNYKTTPPVLDSDGSFFLYSKLTVDKSRWQQGNVFSCSVMHEALHNHYTQKSLSLSP
notes: as for B3
In the case of B6, in assay [3], the dissociation constant (Kd) was determined as 13.5 nM, the off-rate (koff) is 0.00732 s⁻¹ and the on-rate (kon) came out at 540000 M⁻¹ s⁻¹. In addition, in assay [4], binding was put at a Kd of 11.4 nM, the off-rate (koff) was 0.00426 s⁻¹ and the on-rate constant (kon) came out at 374000 M⁻¹ s⁻¹.

B7: 3C6 hu-8 (Fc fusion)
chain: EVQLVESGGGLIQPGGSLRLSCAASGNIGSIRHMGWVRQAPGKERELVATITTVGTTYYANFVKGRFTISRDNSKNTLYLQMNSLRAEDTAVYYCRATAHPTDYWGQGTLVTVSSGGGGSGGGGSDKTHTCPPCPAPEAAGAPSVFLFPPKPKDTLMISRTPEVTCVVVDVSHEDPEVKFNWYVDGVEVHNAKTKPREEQYNSTYRVVSVLTVLHQDWLNGKEYKCAVSNKALPAPIEKTISKAKGQPREPQVYTLPPSRDELTKNQVSLTCLVKGFYPSDIAVEWESNGQPENNYKTTPPVLDSDGSFFLYSKLTVDKSRWQQGNVFSCSVMHEALHNHYTQKSLSLSP
notes: as for B3
Turning to B7, in assay [3], the dissociation constant Kd stood at 12 nM, the koff came out at 0.0315 s⁻¹ and the kon came out at 2.63e+06 M⁻¹ s⁻¹. In assay [4], this molecule returned a dissociation constant (Kd) of 17.3 nM, a koff of 0.0165 s⁻¹ and a kon of 956000 M⁻¹ s⁻¹.

B8: 3C6 hu-4 (Fc fusion)
chain: EVQLVESGGGLIQPGGSLRLSCAASGNIGSIRHMGWHRQAPGKGRELVSTITTVGTTYYANFVKGRFTISRDNSKNTLYLQMNSLRAEDTAVYYCRATAHPTDYWGQGTLVTVSSGGGGSGGGGSDKTHTCPPCPAPEAAGAPSVFLFPPKPKDTLMISRTPEVTCVVVDVSHEDPEVKFNWYVDGVEVHNAKTKPREEQYNSTYRVVSVLTVLHQDWLNGKEYKCAVSNKALPAPIEKTISKAKGQPREPQVYTLPPSRDELTKNQVSLTCLVKGFYPSDIAVEWESNGQPENNYKTTPPVLDSDGSFFLYSKLTVDKSRWQQGNVFSCSVMHEALHNHYTQKSLSLSP
notes: as for B3
Turning to B8, in assay [3], the Kd worked out at 4.89 nM, the koff is 0.00471 s⁻¹ and the kon worked out at 963000 M⁻¹ s⁻¹. In assay [4], this molecule displayed a Kd of 5.58 nM, a koff of 0.00285 s⁻¹ and an association rate constant (kon) of 511000 M⁻¹ s⁻¹.

B9: 3C6 hu-7 (Fc fusion)
chain: EVQLVESGGGLIQPGGSLRLSCAASGNIGSIRHMGWHRQAPGKEREWVATITTVGTTYYANFVKGRFTISRDNSKNTLYLQMNSLRAEDTAVYYCRATAHPTDYWGQGTLVTVSSGGGGSGGGGSDKTHTCPPCPAPEAAGAPSVFLFPPKPKDTLMISRTPEVTCVVVDVSHEDPEVKFNWYVDGVEVHNAKTKPREEQYNSTYRVVSVLTVLHQDWLNGKEYKCAVSNKALPAPIEKTISKAKGQPREPQVYTLPPSRDELTKNQVSLTCLVKGFYPSDIAVEWESNGQPENNYKTTPPVLDSDGSFFLYSKLTVDKSRWQQGNVFSCSVMHEALHNHYTQKSLSLSP
notes: as for B3
For the molecule B9, in assay [3], the equilibrium dissociation constant (Kd) was determined as 4.94 nM, the koff stood at 0.00277 s⁻¹ and the kon amounted to 560000 M⁻¹ s⁻¹. In assay [4], binding was characterised by a dissociation constant (Kd) of 4.79 nM, the koff was 0.00244 s⁻¹ and the kon was 510000 M⁻¹ s⁻¹.

B10: 3C6 hu-3 (Fc fusion)
chain: EVQLVESGGGLIQPGGSLRLSCAASGNIGSIRHMGWHRQAPGKELELVSTITTVGTTYYANFVKGRFTISRDNSKNTLYLQMNSLRAEDTAVYYCRATAHPTDYWGQGTLVTVSSGGGGSGGGGSDKTHTCPPCPAPEAAGAPSVFLFPPKPKDTLMISRTPEVTCVVVDVSHEDPEVKFNWYVDGVEVHNAKTKPREEQYNSTYRVVSVLTVLHQDWLNGKEYKCAVSNKALPAPIEKTISKAKGQPREPQVYTLPPSRDELTKNQVSLTCLVKGFYPSDIAVEWESNGQPENNYKTTPPVLDSDGSFFLYSKLTVDKSRWQQGNVFSCSVMHEALHNHYTQKSLSLSP
notes: as for B3
B10: in assay [3], the Kd was 3.56 nM, the koff came out at 0.00218 s⁻¹ and the kon amounted to 611000 M⁻¹ s⁻¹. In assay [4], this molecule came in with a Kd of 2.74 nM, a dissociation rate constant (koff) of 0.00125 s⁻¹ and a kon of 455000 M⁻¹ s⁻¹.

B11: alpaca nanobody 3C6 (VHH)
VHH: EVQLVESGGGLVQAGESLRLSCAVSGNIGSIRHMGWHRQDPGKERELVATITTVGTTYYANFVKGRFTISRDNAKNTVYLQMNSLKPEDTGVYYCRATAHPTDYWGQGTQVTVSS
notes: also called anti-MSLN nanobody 3C6
For the molecule B11, in assay [3], the dissociation constant (Kd) is 5.66 nM, the off-rate (koff) is 0.000304 s⁻¹ and the kon was 53600 M⁻¹ s⁻¹. Moreover, in assay [4], the affinity, expressed as Kd, was 1.04 nM; the koff stood at 4.69e-05 s⁻¹; the kon came out at 45300 M⁻¹ s⁻¹.
